From publication PMC12246617, “Cryo-EM structures reveal the PP2A–B55α and Eya3 interaction that can be disrupted by a peptide inhibitor” (The Journal of Biological Chemistry, 2025)
One block for each molecule: values may come before it.

Key:
B55α (His-B55) = experiment: Microscale thermophoresis (MST) binding of Eya3 to labeled His-B55; parameters: species or system human
Source text: We expressed and purified Eya3 protein from Escherichia coli and the His-B55α subunit from insect cells (Fig. S1). In the remainder of the article, we will use B55 to represent B55α for simplicity and PP2A–B55 to represent the holoenzyme containing the A, B55, and C subunits. We labeled His-B55 with the RED–Tris–NTA dye and carried out microscale thermophoresis (MST) experiments with increasing concentrations of Eya3.
The modeled Eya3 peptide (residues 65–86) interacts mostly with residues on blades 3 and 4 of the β-propeller on the B55 surface (including residues on the β2D and β3A loop, β3B and β3C loop, and β3D and β4A loop) and with residues on the α1 and α2 helix positioned above blade 5, as well as the α2 and β6A loop (Fig. 1F). In particular, residue H79^Eya3 forms pi–pi or pi–cation stacking with H179^B55 and a hydrogen bond with D197^B55 (Fig. 2A). […] Furthermore, Y77^Eya3 forms a hydrogen bond with the main chain carbonyl of L225^B55, and K75^Eya3 forms another hydrogen bond with Y337^B55 (Fig. 2, B and C). […] We expressed and purified Eya3 K75A, Y77A, and H79A mutant proteins from E. coli and carried out MST experiments with fluorescently labeled His-B55. […] While we were working on the structure of PP2A–B55 + Eya3, Padi et al. ([84]) published the cryo-EM structure of PP2A–B55 in complex with an Eya3 peptide (residues 62–108) on bioRxiv.
(§1) FLAG-hB55, FLAG-hEya3, GFP, and GFP-B55i were cloned into the pCAG vector; (GST)-mEya3 was cloned into pGEX-6p1; His-hB56γ1 was cloned into pGEX-4T1; and His-hB55 was cloned in pFASTbac, all using the NEBuilder HiFi DNA Assembly Cloning Kit (New England Biolabs). h and m represent human and mouse proteins, respectively.
GST-mEya3 and mutants were expressed in BL21 cells. Cells were lysed in lysis buffer containing 50 mM Tris (pH 7.5), 250 mM NaCl, 5% glycerol, 1 mM DTT, and protease inhibitor cocktail (PIC; Thermo Scientific). Lysis was done in ice with sonication using 4 × 45 s pulses with 2-min off periods. NaCl was brought up to 0.5 M using 5 M NaCl, and the lysate was centrifuged for 40 min at 18,000g. Supernatant was gravity-flown over glutathione resin twice. Resin was washed with 100 ml of lysis buffer. GST was cleaved with PreScission protease and eluted into lysis buffer. Eluates were pooled and concentrated with Amicon Ultra Centrifugal filters. Concentrated protein was separated on a pre-equilibrated S200 column for size-exclusion chromatography. Peaks were combined, concentrated again, aliquoted, and stored at −80 °C.
His-B55 was expressed in Hi5 cells. […]
His-B55 or His-B56γ1 labeled with […] (NanoTemper) was added to serial dilutions of mEya3 in PBS with 0.05% Tween-20. The samples were then read with a Monolith NT.115^Pico (NanoTemper) according to the manufacturer’s instructions.

Myc = details: PP2A–B55α binding mutant; cited from earlier work
Source text: (§2) We have shown that Eya proteins directly interact with the PP2A–B55α but not B56 subunit. […] Moreover, all Eya family members can interact with PP2A–B55α through analogous disordered regions in their NTDs ([27], [46]).

[1] = test system: triple-negative breast cancer (TNBC) tumor; details: PP2A–B55α binding mutant; cited from earlier work
Source text: as §2

B55 = details: Eya3 mutant; cited from earlier work
Source text: The modeled Eya3 peptide (residues 65–86) interacts mostly with residues on blades 3 and 4 of the β-propeller on the B55 surface (including residues on the β2D and β3A loop, β3B and β3C loop, and β3D and β4A loop) and with residues on the α1 and α2 helix positioned above blade 5, as well as the α2 and β6A loop (Fig. 1F). In particular, residue H79^Eya3 forms pi–pi or pi–cation stacking with H179^B55 and a hydrogen bond with D197^B55 (Fig. 2A). […] Furthermore, Y77^Eya3 forms a hydrogen bon ...

PP2A–B55 = details: malachite green assay, peptide substrate KRpTIRR; 50 mM Tris [pH 7.5], 50 mM NaCl, 5 mM MgCl2, 0.1 mM EDTA; cited from earlier work
Source text: To identify the factor that led to this discrepancy, we first repeated our as ...

Myc pT58 = details: cited from earlier work
Source text: The weak inhibition of the PP2A–B55 activity by its B55 binders may have different consequences i ...

[2] = test system: Eya3 and B55 complex (FLAG-hEya3 + His-B55); experiment: Mass photometry of Eya3 and B55 complex formation and its disruption by B55i; assay type: binding, human; details: no B55i, 20 mM Tris (pH 8), 250 mM NaCl, 1 mM MnCl2, 0.5 mM TCEP, molar ratio 1.5:1, diluted to 100 nM
Source text: To evaluate the effect of B55i in cells, we expressed the B55i peptide as a GFP fusion on a plasmid in 66cl4 TNBC cells.
B, MST binding affinity curve showing the interaction between mEya3 and His-B55α. C, B55i disruption of the mEya3 and His-B55α interaction on MST. […] The amount of GFP and GFP-B55i expressed was also quantified using eGFP absorbance at 488 nm and normalized to total protein in the cell lysate. The datasets in all panels represent three independent biological replicates. Error bars represent the standard deviation. Statistical data analysis was done using Fmax tests followed by two-tailed, homoscedastic t tests. ∗p < 0.05, ∗∗p < 0.01, and ∗∗∗∗p < 0.0001. MST, microscale thermophoresis; TNBC, triple-negative breast cancer. […] It is uncertain whether these count as molecular weight results or as excluded spectrum labels.
as §1
hEya3 and PP2A–B55 were combined in 20 mM Tris (pH 8), 250 mM NaCl, 1 mM MnCl2, and 0.5 mM TCEP at a molar ratio of 1.5:1. […] Immediately prior to reading, the solution was diluted to 100 nM. Samples were analyzed on the Refeyn TwoMP (Refeyn).

B1: H79A: Eya3 H79A mutant protein from E. coli (protein, UniProt Q99504 1-573, looked up, variant H79A)
Protein phosphatase EYA3: MEEEQDLPEQPVKKAKMQESGEQTISQVSNPDVSDQKPETSSLASNLPMSEEIMTCTDYIPRSSNDYTSQMYSAKPYAAILSVPVSETAYPGQTQYQTLQQTQPYAVYPQATQTYGLPPFGALWPGMKPESGLIQTPSPSQHSVLTCTTGLTTSQPSPAHYSYPIQASSTNASLISTSSTIANIPAAAVASISNQDYPTYTILGQNQYQACYPSSSFGVTGQTNSDAESTTLAATTYQSEKPSVMAPAPAAQRLSSGDPSTSPSLSQTTPSKDTDDQSRKNMTSKNRGKRKADATSSQDSELERVFLWDLDETIIIFHSLLTGSYAQKYGKDPTVVIGSGLTMEEMIFEVADTHLFFNDLEECDQVHVEDVASDDNGQDLSNYSFSTDGFSGSGGSGSHGSSVGVQGGVDWMRKLAFRYRKVREIYDKHKSNVGGLLSPQRKEALQRLRAEIEVLTDSWLGTALKSLLLIQSRKNCVNVLITTTQLVPALAKVLLYGLGEIFPIENIYSATKIGKESCFERIVSRFGKKVTYVVIGDGRDEEIAAKQHNMPFWRITNHGDLVSLHQALELDFL
- binding between Eya3 and B55 (mutants) (B55α (His-B55); fluorescently labeled His-B55, vs Eya3 WT): significantly reduce the binding between Eya3 and B55
- Myc stabilization (Myc): impeded Myc stabilization
- TNBC tumor metastasis [1]: impeded
- interaction between Eya3 and B55 (B55): dramatically reduce the interaction between Eya3 and B55

- Kd (B55α (His-B55); His-B55 labeled with Red–Tris–NTA dye, serial dilutions of Eya3 (mEya3, E. coli), PBS with 0.05% Tween-20, Monolith NT.115 Pico, three independent biological replicates (stated for Fig. 1A)): 1.04 µM
B2: Eya3: Eya3 protein purified from Escherichia coli (mEya3) or HEK293 FreeStyle cells (FLAG-hEya3) (protein)
chain: MEEEQDLPEQPVKKAKMQESGEQTISQVSNPDVSDQKPETSSLASNLPMSEEIMTCTDYIPRSSNDYTSQMYSAKPYAHILSVPVSETAYPGQTQYQTLQQTQPYAVYPQATQTYGLPPFGALWPGMKPESGLIQTPSPSQHSVLTCTTGLTTSQPSPAHYSYPIQASSTNASLISTSSTIANIPAAAVASISNQDYPTYTILGQNQYQACYPSSSFGVTGQTNSDAESTTLAATTYQSEKPSVMAPAPAAQRLSSGDPSTSPSLSQTTPSKDTDDQSRKNMTSKNRGKRKADATSSQDSELERVFLWDLDETIIIFHSLLTGSYAQKYGKDPTVVIGSGLTMEEMIFEVADTHLFFNDLEECDQVHVEDVASDDNGQDLSNYSFSTDGFSGSGGSGSHGSSVGVQGGVDWMRKLAFRYRKVREIYDKHKSNVGGLLSPQRKEALQRLRAEIEVLTDSWLGTALKSLLLIQSRKNCVNVLITTTQLVPALAKVLLYGLGEIFPIENIYSATKIGKESCFERIVSRFGKKVTYVVIGDGRDEEIAAKQHNMPFWRITNHGDLVSLHQALELDFL
modifications: left off: FLAG, end not stated, kept
- phosphatase activity of PP2A–B55 (PP2A–B55): increases the phosphatase activity of PP2A–B55
- dephosphorylation of pT58 on Myc (Myc pT58): clearly increases the dephosphorylation of pT58 on Myc
- Eya3 and B55 complex formation [2]: Eya3 and B55 form a complex
